We go through one molecule from patent US7667100B2, “Nucleic acid compositions conferring herbicide resistance” (Dow AgroSciences LLC, priority 2002, dated 2010).

Series [1] relates to Nicotiana benthamiana. Nature of the series: Cross-resistance testing against six auxin compounds (greenhouse). The series is classed as in vivo. The source says: Six compounds, representing five classes of auxin chemistry, were selected for testing the extent of auxinic tolerance of five hit sequences (129965 (SEQ ID NO:10), 130213 (SEQ ID NO: 14), 130294 (SEQ ID NO:360), 130994 (SEQ ID NO:361), and 129870 (SEQ ID NO:359)). The compounds included the following: • 1) quinclorac (BASF Corp., Research Triangle, N.C.) • 2) (2,4-dichlorophenoxy) acetic acid (Dow AgroSciences, Indianapolis, Ind.) • 3) dicamba (Monsanto, St. Louis, Mo.) • 4) benazolin (AgrEvo USA Company, Wilmington, Del.) • 5) picloram (Dow AgroSciences, Indianapolis, Ind.) • 6) 4-amino-3,6-dichloropyridine-2-carboxylic acid (Dow AgroSciences, Indianapolis, Ind.) Compound #6 served as a positive control, as these five sequences were identified for their herbicide tolerant function using this auxin (see Example 9). Compound #1 represents the quinoline carboxylic acid chemical family, #2 is in the phenoxy carboxylic acid class, #3 is benzoic acid chemistry, #4 is unique to any currently defined class, and #5 is in the same family as the positive control, pyridine carboxylic acids.
The protocol was essentially the same as that described in Example 9 for greenhouse evaluations. However, an individual experiment consisted of 200 test plants plus 35 GFP and 35 bar negative control plants inoculated per clone. […] Two doses per auxin were tested, with as many as 12 well-infected test plants and 2 of each of the negative controls per dose.
The six auxin solutions were prepared by dissolving solid compound in General Purpose Solvent (GPS: 97%DMSO: 3% acetone) to achieve the following spray rates (g ae/ha) when using the spray applicator and parameters outlined in Example 9: Compound #1) 200; 2) 42; 3) 64; 4) 200; 5) 10; 6) 10. From each of these solutions, a portion was diluted with an equal volume of GPS, resulting in 1× (“high dose”) and ½× (“low dose”) concentrations for spraying. Before spray application, each auxin solution was mixed with an equal volume of diluent containing surfactants for effective penetration. The diluent was prepared as follows: 420 mL GPS, 460 mL DI water, 120 mL isopropyl alcohol, 10.167 mL Agri-Dex (Helena Chemical Co., Memphis, Tenn.), and 0.167 mL Triton X-155 (Sigma Chemical Co., St. Louis, Mo.). In addition to the 200 and 100 g ae/ha rates tested for Compound #4 (benazolin), a concentration of 250 g ae/ha was also formulated as described above and tested.
Plants were sprayed and evaluated as described in Example 9. FIG. 7 summarizes the sequences tested and the highest dose of the compounds against which tolerance was observed. […] Results are reported in FIG. 7 for each of the trials with each construct.
The positive control (Compound #6) was formulated differently in this set of evaluations from that described in Example 9, for consistency in the solvent/surfactant background from which to compare the activity of the individual sequences against each auxin. Thus, the spray rate used for evaluation was lower than previous experiments, 5 vs. 13 g ae/ha. The need to lower the dose with this formulation to prevent total chlorosis and/or necrosis was likely due to the addition of DMSO, Agri-Dex, and Triton X-155 which were not used in Example 9.

The subject of series [2] is Nicotiana benthamiana. Briefly: Evaluation of auxin tolerance in greenhouse plants inoculated with clone transcript and sprayed with herbicide. The series is classed as in vivo. To be noted: greenhouse; 30% or more of test population tolerant by 14 dat. Here is the method: All primary hit sequences were evaluated for tolerance in larger plants, maintained under greenhouse conditions as described below.
Plant Growth and Maintenance. Nb seeds were sown in 6.5 cm pots filled with Redi-earth medium (The Scotts Company, Marysville, Ohio) pre-wetted by injection of Hoagland's fertilizer solution [all from the Scotts Company: 147 kg Peters Excel 15-15-15 Cal-Mag, 68 kg Peters Excel 15-0-0 Cal-Lite (15% Ca), and 45 kg Peters Excel 10-0-0 MagNitrate (10% Mg) in hot tap water to 596 L total volume] into irrigation water at a ratio of 200:1, using an injection system (H. E. Anderson, Muskogee Okla,). Seededpots were placed in the greenhouse for 1 day, transferred to a 27° C. germination chamber (Carolina Greenhouses, Kinston, N.C.) for 2 days, and then returned to the greenhouse. Shade curtains (33% transmittance) were used in the greenhouse to reduce solar intensity. To ensure 16 hour day length and supplement solar radiation on overcast days, artificial lighting consisting of a 1:1 mixture of metal halide and high pressure Sylvania sodium lamps was used, delivering approximately 220 μmol/m^2/s. Evaporative cooling and steam heat were used to maintain a daytime set point of 27° C. and a nighttime temperature of 22° C. At approximately 7 days post sowing (dps), seedlings were thinned to one seedling per pot and at 17 to 21 dps, the pots were spaced farther apart to accommodate plant growth. Plants were watered with Hoagland's solution as required. Following inoculation, waste irrigation water was collected and treated with 0.5% sodium hypochlorite for 10 minutes to neutralize any viral contamination before discharging into the municipal sewer.
Plant Inoculation. For each clone, 50 test plants as well as 10 GFP and bar (Thompson et al., EMBO J. 6:2519 [19870]) negative control plants were inoculated as follows: 2.0 mL of inoculum per clone were prepared by combining equal volumes of NCAP transcript and FES buffer [0.1 M glycine, 0.06 M K2HPO4, 1% sodium pyrophosphate, 1% diatomaceous earth (Sigma Chemical Company, St. Louis, Mo.), and either 1% silicon carbide (Aldrich Chemical Company, Milwaukee, Wis.), or 1% Bentonite (Sigma Chemical Company, St. Louis, Mo.)]. The inoculum was applied to each plant at 17 days post sowing by pipetting onto the upper surface of leaves 3 and 4 (˜20 μL per leaf). The inoculum was then spread across each leaf surface using a 3″ cotton tipped applicator (Calapro Swab, Fisher Scientific, Pittsburgh, Pa.) and a gloved finger to support the leaf. Following inoculation the plants were misted with deionized water.
Infection Scoring. At 8 days post inoculation (dpi), the plants were visually examined and a numerical score was assigned to each plant to indicate the extent of viral infection symptoms: 0=no infection, 1=possible infection, 2=infection symptoms limited to leaves <50-75% fully expanded, 3=typical systemic infection, 4=atypically severe infection, often accompanied by moderate to severe wilting and/or necrosis. Plants receiving an infection rating of 0, 1, or 4 were discarded.
Herbicide spraying. At 9 dpi, the well infected plants (infection score of 3, sometimes 2) were divided into 3 treatment groups. Group 1, to be sprayed with solvent only, contained 4 plants per test clone (2 plants per negative control) and Groups 2 and 3, to be treated with 13 or 40 g ae/ha, respectively, each consisted of 12 test plants per clone and 2 plants per negative control. […]

B1: 129870: Poppy cDNA clone; auxin tolerance hit sequence (nucleic acid)
DNA: TTAATTAAGTCGACGAATTCAAATTAGGTCTAAAGATGGCGTCTTTAGCTCAACAATTCTCAGGATTAAGATGCCCACCACTTTCTTCTTCTCATCTAACAAAACCCTTTTCTTCAAAACCCCAGAAAACCACCTTTTCACCTATAGTTTCAGCAGCTGTCATTTCTAATGCACAAACTAAAGAAAGAAGTAGACTTAAAGAAATCTTCGAAGATGCTTATGAAAGATGTAGAACTACTCCAATGCAAGGTGTTGGTTTTACTGTTGATGATTTTCATGCTGCTCTTGAAAAGTATGATTACAATTCTGAGATTGGTACCAGGGTTAAAGGAACTGTGTTCTGTACAGACAACAACGGAGCATTAGTTGACATCACGGCGAAATCTTCAGCCTATTTACCAATCCAAGAGGCATGTATTCACAAAATAAAGCATGTAGAAGAAGCAGGAATAGTTGCAGGCCTACGTGAAGAGTTTGTGATTATTGGAGAGAACCAAGCTGATGATAGCTTGATCTTGAGTTTGCGTTCAATCCAATTTGACCTCGCATGGGAACGGTGTAGACAACTTCAGGCAGAGGATGTCGTCCTCAAGGGTAAGGTTGTTGGTGGAAACAAAGGCGGTGTGGTGGCAATTGTCGAAGGCCTTCGTGGTTTTATTCCATTCTCACAAATATCTTCAAAATCAACCGCGGAAGATCTCATTGATAAGGAGCTTCCTCTGAAATTTGTGGAAGTTGATGAGGAGCAGTCTAGACTTGTCCTCAGTAATCGCAAGGCCATGGCAGACAGCCAGGCACAGCTTGGTATTGGATCAGTTGTCACTGGAACAGTACAGAGTCTTAAGCCATATGGCGCTTTCATCGACATTGGTGGAATCAATGGTCTTCTTCATGTTAGTCAAATTAGTCATGATCGTGTCTCGGATATTGCAACAGTTCTTCAACCCGGCGACACTCTAAAGGTGATGATATTGAGCCACGACCGTGAGAGAGGCCGAGTCAGTCTATCCACCAAAAAGCTAGAGCCTACTCCAGGAGATATGATCCGTAACCCCAAGCTTGTTTTCGAGAAGGCTGAAGAAATGGCTCAGACATTCAGGCAGAGAATAGCTCAAGCAGAAGCTATGGCCCGTGCGGACATGCTGAGATTCCAACCCGAGAGTGGATTGACTCTAAGCTCAGACGGCATCTTAGGTCCCCTGACGCCAGACTTGCCTGCTGAAGGTCTAGATTTGAGCGACATTCCTGCAGCTGATGATGCATAGAAACCAATAAATATGAATTAAATCTGTCTTGACGTTTCTTCTCATCACCATTTTTAGGCTATGTAAGATGGGTCTATAGGTTGTTCAAAGTGTTGACTTGTGTATTTATCTTGATAGTTCAAAGTGTACTTCTTTAAGCGATAATCATTGAAAAGAAAAAATGGAGAAGGTAAAAGATAAAAATATCCAAAAAAAAAAAAAAAAAAAAAAAA
modifications: Poppy
Take B1: the “tolerance to picloram (Compound #5)” value in series [1] (10 g ae/ha and 1/2x) is “demonstrated tolerance to each of the three compounds using the 35% injury threshold”. Moreover, the “tolerance to positive control 4-amino-3,6-dichloropyridine-2-carboxylic acid (Compound #6)” value in series [1] (10 g ae/ha and 1/2x (5 g ae/ha)) is “tolerance consistently occurred at the lower threshold (25% injury or less)”. Moreover, in series [1] (64 g ae/ha and 1/2x), the “tolerance to dicamba (Compound #3)” value was “demonstrated tolerance to each of the three compounds using the 35% injury threshold”. In addition, in series [1] (200 g ae/ha and 1/2x), the “tolerance to quinclorac (Compound #1)” value is on record as “demonstrated tolerance to each of the three compounds using the 35% injury threshold”. The “extent of cross-resistance to the six auxin compounds” value in series [1] (two trials, two doses per auxin, thresholds 25% or 35% injury or less) is “tolerance was observed against four compounds”. The “reproducibility of auxin tolerance from Trial #1 to Trial #2” value in series [2] is reported as “reproducible auxin tolerance”.
